# Measured values as given in article PMC11347149.
# How the values were obtained:
# [1] = molecular target: T1, His6C-CoxC (LytTR DNA-binding domain) (Afipia carboxidovorans OM5) (UniProt Q9KX27); test: EMSA; settings: EMSA: 20 mM Tris-HCl pH 7.5, 50 mM KCl, 2 mM beta-mercaptoethanol, 10% glycerol, 250 ug/ml BSA, 50 ug/ml salmon sperm DNA, 1 mM DTT, 1 mM dithionite, 2 ng …
# T1 sequence: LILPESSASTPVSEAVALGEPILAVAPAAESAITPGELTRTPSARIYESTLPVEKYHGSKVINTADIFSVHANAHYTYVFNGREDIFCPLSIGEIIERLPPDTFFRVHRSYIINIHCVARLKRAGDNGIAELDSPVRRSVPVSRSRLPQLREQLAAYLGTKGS
# [2] = system: His6C-CoxC (LytTR DNA-binding domain) (Afipia carboxidovorans OM5); test: EMSA; settings: EMSA: 20 mM Tris-HCl pH 7.5, 50 mM KCl, 2 mM beta-mercaptoethanol, 10% glycerol, 250 ug/ml BSA, 50 ug/ml salmon sperm DNA, 1 mM DTT, 1 mM dithionite, 2 ng …
substance,measurement,setting,value
AATTCCAGTTCATGCGTATGTTACCGCCGTTGGTGGAATTTGGAAGTCGTTTGGGCAAAAGCCTTTGATGCTGCTTTGCGGCAACTTCTATCGTGCCCCACGAACGTCGCATCATAAGAAATGTGACGCCCGGGGGGGACAACGCAAATGGGTTGCGAAAATATGCAGGCGCGGCAAGCACCGTGTCGCCAAGCTAGGCATTTGGCTCAAACTGTCCCCTCGAAGCTCTCTTCAACTGCTGCAAAGCATCGACCGCATTTTCGCGGACGATATTGGGATCCCG (double strand) [PcoxB],Kd,[1],25 nM
same,binding,[1],binds
PcoxB,Kd,[2],25 nM
